The values that follow come from US20150241442A1.

The target of this assay is Leukocyte Function Antigen-1 (LFA-1), on cells (Jurkat T cells, human T cells, PBMC) (human) (UniProt P20701). The assay is described as follows: cell-based or functional assay.
Leukocyte Function Antigen-1 (LFA-1), on cells (Jurkat T cells, human T cells, PBMC) (human), sequence (P20701 26-1170, chain 1 of 2): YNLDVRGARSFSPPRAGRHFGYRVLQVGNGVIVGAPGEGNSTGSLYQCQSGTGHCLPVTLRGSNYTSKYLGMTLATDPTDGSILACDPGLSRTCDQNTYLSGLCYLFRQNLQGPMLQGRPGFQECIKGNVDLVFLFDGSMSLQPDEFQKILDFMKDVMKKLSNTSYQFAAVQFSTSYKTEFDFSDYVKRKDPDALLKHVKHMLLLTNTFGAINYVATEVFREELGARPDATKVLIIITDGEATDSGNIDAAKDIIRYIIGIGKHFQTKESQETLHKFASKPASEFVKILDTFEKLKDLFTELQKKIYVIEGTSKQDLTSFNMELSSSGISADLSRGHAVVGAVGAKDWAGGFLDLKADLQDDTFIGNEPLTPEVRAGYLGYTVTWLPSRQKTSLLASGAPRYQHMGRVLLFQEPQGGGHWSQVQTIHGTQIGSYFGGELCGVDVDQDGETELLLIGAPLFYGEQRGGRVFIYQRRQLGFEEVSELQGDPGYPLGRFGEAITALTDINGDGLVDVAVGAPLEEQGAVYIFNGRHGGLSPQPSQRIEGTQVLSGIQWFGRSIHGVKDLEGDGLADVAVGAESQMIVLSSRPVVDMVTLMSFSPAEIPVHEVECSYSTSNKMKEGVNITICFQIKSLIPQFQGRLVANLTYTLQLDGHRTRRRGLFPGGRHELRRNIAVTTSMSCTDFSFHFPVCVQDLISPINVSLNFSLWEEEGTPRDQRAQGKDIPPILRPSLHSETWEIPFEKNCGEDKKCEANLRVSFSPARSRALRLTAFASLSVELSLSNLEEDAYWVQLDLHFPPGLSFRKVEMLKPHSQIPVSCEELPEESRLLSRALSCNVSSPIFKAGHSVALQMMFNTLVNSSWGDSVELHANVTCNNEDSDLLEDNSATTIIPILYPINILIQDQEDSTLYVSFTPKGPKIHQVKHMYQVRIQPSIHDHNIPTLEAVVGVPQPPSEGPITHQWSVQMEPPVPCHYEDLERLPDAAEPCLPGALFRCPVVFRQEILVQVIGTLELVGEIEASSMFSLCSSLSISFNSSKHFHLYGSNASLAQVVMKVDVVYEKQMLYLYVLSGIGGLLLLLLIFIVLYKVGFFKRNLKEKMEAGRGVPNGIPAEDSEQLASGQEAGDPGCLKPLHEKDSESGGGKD
Leukocyte Function Antigen-1 (LFA-1), on cells (Jurkat T cells, human T cells, PBMC) (human), sequence (P05107 23-769, chain 2 of 2, further chain): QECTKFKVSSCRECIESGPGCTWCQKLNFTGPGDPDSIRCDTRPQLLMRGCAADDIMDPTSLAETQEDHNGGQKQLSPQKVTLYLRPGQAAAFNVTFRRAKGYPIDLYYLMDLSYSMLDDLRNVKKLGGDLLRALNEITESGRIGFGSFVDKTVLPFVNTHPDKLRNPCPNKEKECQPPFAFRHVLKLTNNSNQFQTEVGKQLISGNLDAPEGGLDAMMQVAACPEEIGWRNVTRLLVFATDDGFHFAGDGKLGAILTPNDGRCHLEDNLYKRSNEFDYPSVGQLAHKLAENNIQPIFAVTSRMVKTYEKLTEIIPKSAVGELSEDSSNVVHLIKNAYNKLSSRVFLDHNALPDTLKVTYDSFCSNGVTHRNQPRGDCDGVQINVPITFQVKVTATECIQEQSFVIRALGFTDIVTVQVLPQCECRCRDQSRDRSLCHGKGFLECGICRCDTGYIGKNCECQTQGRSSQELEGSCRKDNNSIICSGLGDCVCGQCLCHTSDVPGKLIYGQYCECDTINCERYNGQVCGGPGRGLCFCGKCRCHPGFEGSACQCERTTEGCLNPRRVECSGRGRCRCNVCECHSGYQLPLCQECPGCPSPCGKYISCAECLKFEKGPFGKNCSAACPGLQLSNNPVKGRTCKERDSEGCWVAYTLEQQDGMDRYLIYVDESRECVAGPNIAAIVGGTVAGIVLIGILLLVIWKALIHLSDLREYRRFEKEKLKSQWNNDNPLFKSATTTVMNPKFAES

B1: recombinant human ICAM2-FC (Fc fusion, UniProt P13598 25-223, looked up, not shown: a dimerising Fc or GST)
chain: KVFEVHVRPKKLAVEPKGSLEVNCSTTCNQPEVGGLETSLDKILLDEQAQWKHYLVSNISHDTVLQCHFTCSGKQESMNSNVSVYQPPRQVILTLQPTLVAVGKSFTIECRVPTVEPLDSLTLFLFRGNETLHYETFGKAAPAPQEATATFNSTADREDGHRNFSCLAVLDLMSRGGNIFHKHSAPKMLEIYEPVSDSQ
In turn, B1 yielded a frequency of the perforin negative population, CD56+CD8med cells of 21.5% and a granzyme-A negative population, CD56+CD8high cells of 58.3%.

B2: recombinant human ICAM3-FC (Fc fusion, UniProt P32942 30-485, looked up, not shown: a dimerising Fc or GST)
chain: QEFLLRVEPQNPVLSAGGSLFVNCSTDCPSSEKIALETSLSKELVASGMGWAAFNLSNVTGNSRILCSVYCNGSQITGSSNITVYRLPERVELAPLPPWQPVGQNFTLRCQVEDGSPRTSLTVVLLRWEEELSRQPAVEEPAEVTATVLASRDDHGAPFSCRTELDMQPQGLGLFVNTSAPRQLRTFVLPVTPPRLVAPRFLEVETSWPVDCTLDGLFPASEAQVYLALGDQMLNATVMNHGDTLTATATATARADQEGAREIVCNVTLGGERREARENLTVFSFLGPIVNLSEPTAHEGSTVTVSCMAGARVQVTLDGVPAAAPGQPAQLQLNATESDDGRSFFCSATLEVDGEFLHRNSSVQLRVLYGPKIDRATCPQHLKWKDKTRHVLQCQARGNPYPELRCLKEGSSREVPVGIPFFVNVTHNGTYQCQASSSRGKYTLVVVMDIEAGSSH
Consider B2, for which the frequency of the perforin negative population, CD56+CD8med cells was 19.8% and the granzyme-A negative population, CD56+CD8high cells was 3.07%.
